Test results from publication PMC3034952 (Enzyme Research, 2011).
Positions count from the first letter of the chain named. Numbers in names are those of the source.

B1: AtPDC E1α, wild type, bacterial two-hybrid fusion in pTRG (enzyme, Arabidopsis thaliana, UniProt P52901 1-389, looked up)
chain: MALSRLSSRSNIITRPFSAAFSRLISTDTTPITIETSLPFTAHLCDPPSRSVESSSQELLDFFRTMALMRRMEIAADSLYKAKLIRGFCHLYDGQEAVAIGMEAAITKKDAIITAYRDHCIFLGRGGSLHEVFSELMGRQAGCSKGKGGSMHFYKKESSFYGGHGIVGAQVPLGCGIAFAQKYNKEEAVTFALYGDGAANQGQLFEALNISALWDLPAILVCENNHYGMGTAEWRAAKSPSYYKRGDYVPGLKVDGMDAFAVKQACKFAKQHALEKGPIILEMDTYRYHGHSMSDPGSTYRTRDEISGVRQERDPIERIKKLVLSHDLATEKELKDMEKEIRKEVDDAIAKAKDCPMPEPSELFTNVYVKGFGTESFGPDRKEVKASLP
B2: AtPDC E1 (AtE1; recombinant alpha2beta2 pyruvate dehydrogenase) (Arabidopsis thaliana) (protein)
chain 1: SAAFSRLISTDTTPITIETSLPFTAHLCDPPSRSVESSSQELLDFFRTMALMRRMEIAADSLYKAKLIRGFCHLYDGQEAVAIGMEAAITKKDAIITAYRDHCIFLGRGGSLHEVFSELMGRQAGCSKGKGGSMHFYKKESSFYGGHGIVGAQVPLGCGIAFAQKYNKEEAVTFALYGDGAANQGQLFEALNISALWDLPAILVCENNHYGMGTAEWRAAKSPSYYKRGDYVPGLKVDGMDAFAVKQACKFAKQHALEKGPIILEMDTYRYHGHSMSDPGSTYRTRDEISGVRQERDPIERIKKLVLSHDLATEKELKDMEKEIRKEVDDAIAKAKDCPMPEPSELFTNVYVKGFGTESFGPDRKEVKASLP
chain 2: AAGAKEMTVRDALNSAIDEEMSADPKVFVMGEEVGQYQGAYKITKGLLEKYGPERVYDTPITEAGFTGIGVGAAYAGLKPVVEFMTFNFSMQAIDHIINSAAKSNYMSAGQINVPIVFRGPNGAAAGVGAQHSQCYAAWYASVPGLKVLAPYSAEDARGLLKAAIRDPDPVVFLENELLYGESFPISEEALDSSFCLPIGKAKIEREGKDVTIVTFSKMVGFALKAAEKLAEEGISAEVINLRSIRPLDRATINASVRKTSRLVTVEEGFPQHGVCAEICASVVEESFSYLDAPVERIAGADVPMPYAANLERLALPQIEDIVRASKRACYRSK
notes: co-expressed in E. coli with GroE; alpha2beta2 heterotetramer, Mr 160,000
B3: AtPDC E1 (AtE1; recombinant alpha2beta2 pyruvate dehydrogenase) (Arabidopsis thaliana; P52901:D295A) (protein)
chain 1: B2 chain 1 with D278A
chain 2: B2 chain 2
notes: as for B2
B4: AtPDC E1 (AtE1; recombinant alpha2beta2 pyruvate dehydrogenase) (Arabidopsis thaliana; P52901:D295N) (protein)
chain 1: B2 chain 1 with D278N
chain 2: B2 chain 2
notes: as for B2
B5: AtPDC E1 (AtE1; recombinant alpha2beta2 pyruvate dehydrogenase) (Arabidopsis thaliana; P52901:G297D) (protein)
chain 1: B2 chain 1 with G280D
chain 2: B2 chain 2
notes: as for B2

target: T1, Arabidopsis thaliana pyruvate dehydrogenase-kinase (AtPDK), wild type, bacterial two-hybrid fusion in pBT (Arabidopsis thaliana, UniProt Q9SBJ1 1-366); assay: two-hybrid; bacterial two-hybrid (BacterioMatch I, Stratagene): AtPDK in pBT, E1α constructs in pTRG, cotransformed into the E. coli reporter strain; quantified by β-galactosidase activity with o-nitrophenyl-β-D-galactoside; conditions: partners not purified
T1 sequence (looked up): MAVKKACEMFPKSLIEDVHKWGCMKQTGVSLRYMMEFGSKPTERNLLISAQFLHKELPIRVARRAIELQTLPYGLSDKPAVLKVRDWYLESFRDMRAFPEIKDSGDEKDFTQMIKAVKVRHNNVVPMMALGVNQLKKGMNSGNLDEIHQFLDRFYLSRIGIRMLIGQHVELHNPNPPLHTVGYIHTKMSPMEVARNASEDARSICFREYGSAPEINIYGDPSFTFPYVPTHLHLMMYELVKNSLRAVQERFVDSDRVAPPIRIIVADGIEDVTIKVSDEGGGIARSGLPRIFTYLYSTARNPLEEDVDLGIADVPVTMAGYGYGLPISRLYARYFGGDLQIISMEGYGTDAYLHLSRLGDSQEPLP

Binder	β-galactosidase reporter activity (100% of WT)
B1	3 μmol min^−1 1.0 A600^−1

substrate: CC(=O)C(=O)O; assay: purified protein; assay type: biochemical, Arabidopsis thaliana; conditions: 1.8 μM K3Fe(CN)6 as electron acceptor, 30°C, labelled compound

Binder	Km	kcat	kcat/Km
B2	45 ± 18 µM	159 ± 14 s⁻¹	3.5e+06 M⁻¹ s⁻¹
B3	178 ± 108 µM	52 ± 12 s⁻¹	300000 M⁻¹ s⁻¹
B4	257 ± 144 µM	38 ± 10 s⁻¹	100000 M⁻¹ s⁻¹
B5	66 ± 24 µM	70 ± 7 s⁻¹	1e+06 M⁻¹ s⁻¹
